The results in this text go back to patent US10702592B2, “Peptides and combination of peptides for use in immunotherapy against NHL and other cancers” (Immatics Biotechnologies GmbH, priority 2016, dated 2020).

The target in this assay is HLA-A*02:01 (Homo sapiens, UniProt P04439, D140Y/D185E/D98H/E176V/E277Q/G131W/G231S/I119V/I121R/I166T/I218V/L300P/L318F/N151K/N90K/P208A/P217A/Q86G/Q94H/R138H/R169H/T345S). The experiment in a line: MHC binding assay (UV-ligand exchange, beta2m ELISA). The conditions noted are these: binding to HLA-A*02:01, UV-ligand exchange. An excerpt:
Candidate peptides for T cell based therapies according to the present invention were further tested for their MHC binding capacity (affinity). The individual peptide-MHC complexes were produced by UV-ligand exchange, where a UV-sensitive peptide is cleaved upon UV-irradiation, and exchanged with the peptide of interest as analyzed. Only peptide candidates that can effectively bind and stabilize the peptide-receptive MHC molecules prevent dissociation of the MHC complexes. To determine the yield of the exchange reaction, an ELISA was performed based on the detection of the light chain (β2m) of stabilized MHC complexes. The assay was performed as generally described in Rodenko et al. (Rodenko et al., 2006).
96 well MAXISorp plates (NUNC) were coated over night with 2 ug/ml streptavidin in PBS at room temperature, washed 4× and blocked for 1 h at 37° C. in 2% BSA containing blocking buffer. Refolded HLA-A*02:01/MLA-001 monomers served as standards, covering the range of 15-500 ng/ml. Peptide-MHC monomers of the UV-exchange reaction were diluted 100 fold in blocking buffer. Samples were incubated for 1 h at 37° C., washed four times, incubated with 2 ug/ml HRP conjugated anti-β2m for 1 h at 37° C., washed again and detected with TMB solution that is stopped with […]. Absorption was measured at 450 nm. Candidate peptides that show a high exchange yield (preferably higher than 50%, most preferred higher than 75%) are generally preferred for a generation and production of antibodies or fragments thereof, and/or T cell receptors or fragments thereof, as they show sufficient avidity to the MHC molecules and prevent dissociation of the MHC complexes.
Background: An ELISA detects its analyte on a solid surface through an enzyme-linked reagent.
For the substance “4 (TLLGFFLAKV; listed as Homo sapiens) [compound 4]”, the “Peptide exchange (MHC class I binding score, peptide exchange yield)” value (“Peptide exchange” below) is ““++” (≥20% = ++)”.
The entry for “6 (TLITLPLLFL; listed as Homo sapiens) [compound 6]” is ““+++” (≥50 = +++)”.
The entry for “10 (FLLVGTQIDL; listed as Homo sapiens) [compound 10]” is ““+++” (≥50 = +++)”.
The entry for “11 (GLDTVVALL; listed as Homo sapiens) [compound 11]” is ““+++” (≥50 = +++)”; for “14 (LLSDPTPGA; listed as Homo sapiens) [compound 14]” it is ““++” (≥20% = ++)”; for “15 (IIIEDLLEA; listed as Homo sapiens) [compound 15]” it is ““++++” (≥75% = ++++)”.
For “16 (TLIAAILYL; listed as Homo sapiens) [compound 16]”, the “Peptide exchange” value is listed as ““++” (≥20% = ++)”.
The entry for “18 (KLTDQPPLV; listed as Homo sapiens) [compound 18]” is ““+++” (≥50 = +++)”.
Take “23 (ALVEDIINL; listed as Homo sapiens) [compound 23]”: the “Peptide exchange” value was ““++++” (≥75% = ++++)”.
The entry for “31 (KLYDEESLL; listed as Homo sapiens) [compound 31]” is ““++++” (≥75% = ++++)”.
The entry for “32 (VLNEDELPSV; listed as Homo sapiens) [compound 32]” is ““+++” (≥50 = +++)”.
The entry for “34 (LLWEDGVTEA; listed as Homo sapiens) [compound 34]” is ““+++” (≥50 = +++)”.
“38 (YLTAEILELAGN; listed as Homo sapiens) [compound 38]”: the “Peptide exchange” value is recorded as ““++” (≥20% = ++)”.
For “39 (QLLPQGIVPAL; listed as Homo sapiens) [compound 39]”, the “Peptide exchange” value is listed as ““+++” (≥50 = +++)”.
The entry for “45 (FILDDSALYL; listed as Homo sapiens) [compound 45]” is ““+++” (≥50 = +++)”; for “48 (KILDEDLYI; listed as Homo sapiens) [compound 48]” it is ““+++” (≥50 = +++)”; for “49 (TILGDPQILL; listed as Homo sapiens) [compound 49]” it is ““++++” (≥75% = ++++)”.
The entry for “50 (LLLDGLIYL; listed as Homo sapiens) [compound 50]” is ““+++” (≥50 = +++)”; for “54 (DIFDAMFSV; listed as Homo sapiens) [compound 54]” it is ““+” (≥10% = +)”; for “55 (ILVEVDLVQA; listed as Homo sapiens) [compound 55]” it is ““++++” (≥75% = ++++)”.
The entry for “56 (GLQDLLFSL; listed as Homo sapiens) [compound 56]” is ““+++” (≥50 = +++)”.
Consider “58 (QLAPFLPQL; listed as Homo sapiens) [compound 58]”, for which the “Peptide exchange” value is ““+++” (≥50 = +++)”.
The entry for “63 (ALIEEAYGL; listed as Homo sapiens) [compound 63]” is ““+++” (≥50 = +++)”; for “64 (FLVEVSNDV; listed as Homo sapiens) [compound 64]” it is ““++++” (≥75% = ++++)”.
For “65 (NLTDVSPDL; listed as Homo sapiens) [compound 65]” the value was ““+++” (≥50 = +++)”; for “69 (TLLAFPLLL; listed as Homo sapiens) [compound 69]”, ““++++” (≥75% = ++++)”.
In the case of “70 (VLIEILQKA; listed as Homo sapiens) [compound 70]”, the “Peptide exchange” value is reported as ““++++” (≥75% = ++++)”.
For “71 (VLLDYVGNVQL; listed as Homo sapiens) [compound 71]” the value was ““++++” (≥75% = ++++)”.
The entry for “72 (TLQEETAVYL; listed as Homo sapiens) [compound 72]” is ““++” (≥20% = ++)”.
The entry for “75 (AALKYIPSV; listed as Homo sapiens) [compound 75]” is ““+++” (≥50 = +++)”; for “76 (ALADLVPVDVVV; listed as Homo sapiens) [compound 76]” it is ““++++” (≥75% = ++++)”; for “77 (ALLDVSNNYGI; listed as Homo sapiens) [compound 77]” it is ““++++” (≥75% = ++++)”.
Regarding “78 (AMEEAVAQV; listed as Homo sapiens) [compound 78]”, the “Peptide exchange” value is reported as ““+++” (≥50 = +++)”.
The entry for “79 (AMKEEKEQL; listed as Homo sapiens) [compound 79]” is ““++” (≥20% = ++)”; for “80 (YLFDEIDQA; listed as Homo sapiens) [compound 80]” it is ““+++” (≥50 = +++)”.
In the case of “81 (FIFSYITAV; listed as Homo sapiens) [compound 81]”, the “Peptide exchange” value is reported as ““++” (≥20% = ++)”.
Regarding “82 (FLIDGSSSV; listed as Homo sapiens) [compound 82]”, the “Peptide exchange” value is ““+++” (≥50 = +++)”.
For “83 (FLMDDNMSNTL; listed as Homo sapiens) [compound 83]” the value was ““+++” (≥50 = +++)”; for “84 (FLQELQLEHA; listed as Homo sapiens) [compound 84]”, ““+++” (≥50 = +++)”; for “85 (GLAPAEVVVATVA; listed as Homo sapiens) [compound 85]”, ““+++” (≥50 = +++)”.
For “86 (GLATIRAYL; listed as Homo sapiens) [compound 86]” the value was ““+++” (≥50 = +++)”; for “87 (GLFARIIMI; listed as Homo sapiens) [compound 87]”, ““++” (≥20% = ++)”.
For “88 (GLFDNRSGLPEA; listed as Homo sapiens) [compound 88]”, the “Peptide exchange” value is given as ““+++” (≥50 = +++)”.
As to “89 (GLTALHVAV; listed as Homo sapiens) [compound 89]”, the “Peptide exchange” value is listed as ““+++” (≥50 = +++)”.
As to “90 (HLDEVFLEL; listed as Homo sapiens) [compound 90]”, the “Peptide exchange” value was ““+++” (≥50 = +++)”.
On to “91 (HLSSTTAQV; listed as Homo sapiens) [compound 91]”, for which the “Peptide exchange” value was ““++” (≥20% = ++)”.
The entry for “92 (KLLFEIASA; listed as Homo sapiens) [compound 92]” is ““+++” (≥50 = +++)”; for “93 (KLLGSLQLL; listed as Homo sapiens) [compound 93]” it is ““++++” (≥75% = ++++)”; for “94 (LLAGQATTAYF; listed as Homo sapiens) [compound 94]” it is ““+++” (≥50 = +++)”.
For “95 (LLFDLIPVVSV; listed as Homo sapiens) [compound 95]” the value was ““+++” (≥50 = +++)”.
The entry for “96 (LLLNENESLFL; listed as Homo sapiens) [compound 96]” is ““+++” (≥50 = +++)”.
“97 (LLNFSPGNL; listed as Homo sapiens) [compound 97]”: the “Peptide exchange” value is given as ““+” (≥10% = +)”.
The entry for “98 (MLQDGIARL; listed as Homo sapiens) [compound 98]” is ““+++” (≥50 = +++)”; for “99 (QLYDGATALFL; listed as Homo sapiens) [compound 99]” it is ““++” (≥20% = ++)”.
As to “100 (RLIRTIAAI; listed as Homo sapiens) [compound 100]”, the “Peptide exchange” value is given as ““+++” (≥50 = +++)”.
For “101 (SLDQSTWNV; listed as Homo sapiens) [compound 101]” the value was ““++++” (≥75% = ++++)”; for “102 (SLFAAISGMIL; listed as Homo sapiens) [compound 102]”, ““+++” (≥50 = +++)”.
